In patent publication US4829052A, “Serine protease inhibitors” (Monsanto Company, priority 1987, dated 1989):
“Also recorded” adds a separate entry of the source.

Key:
[1] = target: T1, bovine trypsin (Bos taurus, UniProt P00760); assay: Trypsin assay (spectrophotometric, N-Benzoyl-L-arginine p-nitroanilide substrate); format: biochemical; settings: inhibitor/protease ratio between about 10/1 and 50/1
T1 sequence (P00760 24-246): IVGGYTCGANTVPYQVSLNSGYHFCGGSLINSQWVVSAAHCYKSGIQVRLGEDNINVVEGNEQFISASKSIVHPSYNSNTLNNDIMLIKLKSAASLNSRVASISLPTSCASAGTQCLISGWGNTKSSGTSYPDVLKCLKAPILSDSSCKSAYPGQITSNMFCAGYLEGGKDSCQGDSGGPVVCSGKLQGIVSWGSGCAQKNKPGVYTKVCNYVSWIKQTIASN
Description: (§1) The inhibitory activity of the polypeptides of the present invention can be easily assayed using in vitro assays. In these types of spectrophotometric assays the activity of the serine protease is measured toward an appropriate p-nitroanilide substrate in the presence and absence of the peptide inhibitor. The enzyme catalyzed hydrolysis of the peptide p-nitroanilide substrate produces p-nitroanaline which results in an increase in absorbance which is monitored in the range of 405 to 410 nm. The rate of increase in absorbance is a measure of the enzymatic activity and the decrease in this rate relative to a suitable control is used to ascertain inhibition. The general assay procedure and details of the particular assays employed in the examples are provided in the Appendix following the examples. It is also possible to test the polypeptides in a functionally oriented assay that emulates in vivo conditions. Such an inhibition assay for elastase is also described in the Appendix.
(§2) Generalized Protocol Spectrophotometric Assays:
(§3) (1) Pipette 100 μl of enzyme solution into a disposable polystyrene cuvette (1 cm optical path length).
(§4) (2) Add (1900-X) μl of bufferto the cuvette, where X is the volume of test solution in microliters that is added in the next step.
(§5) Add X μl of test solution to the cuvette, where X ranges from 0 μl for the control to a maximum of about 500 μl. Incubate the solution for a period of 1 to 5 minutes at ambient temperature.
(§6) (4) Add 100 μl of substrate solution to the cuvette. Mix the contents by covering the cuvette with a piece of paraffin film and repeatedly inverting for a period of 5 to 15 seconds.
(§7) (5) Record the change in absorbance for about 5 minutes at either 405 or 410 nm, depending on the assay, with a spectrophotometer equipped with a suitable recording device.
(§8) The percent inhibition is calculated from the formula [formula] where (ΔA/min) is the initial rate of absorbance change.
(§9) (7) For more accurate quantitative determinations temperature control of the cuvette holders and the reagent solutions can be instituted.
(§10) (8) The test solution can be crude oxidized peptide prepared as described above, fractions from a chromatographic separation or purified polypeptides.
(A) Buffer Solution - Triethanolamine buffer consisting of 200 mM triethanolamine, 20 mM CaCl2, pH 7.8
(B) Substrate solution - Dissolve 50 mg of N-Benzoyl-L-arginine p-nitroanilide in 50 ml of water. Sonicate for 5 to 10 minutes to completely dissolve the solid material.
(C) Enzyme solution - Dissolve 1 mg of bovine trypsin in 10 ml of 0.001N HCl stored on ice during the assay.
(§11) (D) Test Solution - See general protocol, number 8.
(§12) Procedure: Use the above solutions in the general protocol described above.

[2] = target: T2, Human Sputum Elastase (Homo sapiens, UniProt P08246); assay: Elastase assay (spectrophotometric, p-nitroanilide substrate); format: biochemical; settings: for Inhibitory Activity Elastase: inhibitor/protease ratio between about 10/1 and 50/1; for inhibition of human elastase (in words): text discussion of Table III
T2 construct: Human Sputum Elastase, product No. SE-563 EPC, Inc., Pacific, Mo; USA, Lot 85701; purchased EPC, Inc., Pacific, Mo; USA SE-563; host or cells: human sputum
T2 sequence (P08246 30-267): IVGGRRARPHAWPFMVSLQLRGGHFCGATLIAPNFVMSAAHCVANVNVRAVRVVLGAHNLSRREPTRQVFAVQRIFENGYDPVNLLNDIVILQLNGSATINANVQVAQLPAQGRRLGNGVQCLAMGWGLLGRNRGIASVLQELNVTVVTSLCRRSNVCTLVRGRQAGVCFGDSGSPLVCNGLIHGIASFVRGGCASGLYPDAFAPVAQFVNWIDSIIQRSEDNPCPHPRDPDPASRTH
Description: as §1, §2, §3, §4, §5, §6, §7, §8, §9, §10
(A) Buffer Solution - Tris-NaCl buffer consisting of 0.1M Tris-HCl pH 7.5 at 25° C. containing 0.5M NaCl and 0.01% (w/v) NaNs.
(B) Substrate Solution - Dissolve 45.5 mg of N-succinyl-L-alanyl-L-alanyl-L-alanine p-nitroanilide in 1 ml of 1-methyl-2-pyrrolidinone. Add 32 ml of Tris-NaCl buffer.
(C) Enzyme Solution - Human Sputum Elastase, product No. SE-563 EPC, Inc., Pacific, Mo. USA, Lot 85701. Dissolve 1 mg in 1 ml of Tris-NaCl buffer. Store on ice or at 4° C.
as §11, §12
(1) Buffer Solution - Tris-NaCl buffer -see Method 1.
(2) Substrate Solution - Dissolve 50 mg of 3-carbomethoxypropionyl-L-alanyl-L-alanyl-L-[…]-L-valine p-nitroanilidein 1 ml of 1-methyl-2-pyrrolidinone. Add 32 ml of Tris-NaCl buffer.
(3) Enzyme Solution - Human sputum elastase, product No. SE-563, EPC, inc. Pacific, Mo. USA, Lot 85071. Prepare a sample at a concentration of 0.01 mg per ml of Tris-NaCl buffer. Store on ice.
(4) Test Solution - general protocol, number 8.
Procedure: Use the above solutions in the general protocol.
(1) Porcine pancreatic elastase may be substituted for human elastase when it is desired to test for an inhibitor of the former.
(2) The activity of an elastase preparation can be calculated as [formula]
(3) The Tris-NaCl buffer also can be pH 8.0 with 0.03% sodium azide. Results should be compared at a single pH.

[3] = target: T3, Human Sputum Cathepsin G (Homo sapiens, UniProt P08311); assay: Cathepsin G assay (spectrophotometric, p-nitroanilide substrate); format: biochemical; settings: inhibitor/protease ratio between about 10/1 and 50/1
T3 construct: Human Sputum Cathepsin G (Product No. SG-45, EPC, Inc., Pacific, Mo.); purchased EPC, Inc., Pacific, Mo; SG-45; host or cells: human sputum
T3 sequence (P08311 21-255): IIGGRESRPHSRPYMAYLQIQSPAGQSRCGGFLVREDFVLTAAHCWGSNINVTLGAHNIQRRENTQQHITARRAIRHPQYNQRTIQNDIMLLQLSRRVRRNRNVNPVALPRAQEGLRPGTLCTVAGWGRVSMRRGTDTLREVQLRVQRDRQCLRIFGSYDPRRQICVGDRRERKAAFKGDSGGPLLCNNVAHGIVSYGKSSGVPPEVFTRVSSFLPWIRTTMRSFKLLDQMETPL
Description: as §1, §2, §3, §4, §5, §6, §7, §8, §9, §10
(A) Buffer Solution - Tris-NaCl buffer consisting of 0.1M Tris-HCl, pH 8.0 containing 0.5M NaCl and 0.03% sodium azide.
(B) Substrate solution - Dissolve 50 mg of N-succinyl-L-alanyl-L-alanyl-L-prolyl-L-phenylalanine p-nitroanilide in 1 ml of 1-methyl-2-pyrrolidinone and dilute to 50 ml with Tris-NaCl buffer.
(C) Enzyme Solution - Human Sputum Cathepsin G (Product No. SG-45, EPC, Inc., Pacific, Mo.). Dissolve 1 mg of protein per 1 ml of Tris-NaCl buffer. Store on ice or at 4° C.
(D) Test Solutions - See the general protocol, number 8.
Procedure: Use the above solution in the general protocol described above. […]

[4] = target: T4, bovine chymotrypsin (Bos taurus, UniProt P00766); assay: Chymotrypsin assay (spectrophotometric, p-nitroanilide substrate); format: biochemical; settings: inhibitor/protease ratio between about 10/1 and 50/1
Description: as §1, §2, §3, §4, §5, §6, §7, §8, §9, §10
(A) Buffer solution - triethanolamine buffer- See trypsin assay.
(B) Substrate Solution - Dissolve 25 mg of 3-carbomethoxypropionyl-L-arginyl-L-prolyl-L-tyrosine p-nitroanilide (Product No. S-2586, KabiVitrum AB, Stockholm, Sweden) in 23.6 ml of water
(C) Enzyme solution - Dissolve 1 mg of bovine chymotrypsin in 4 ml of 0.001N HCl. Prepare the final dilution by combining 0.1 ml of the stock chymotrypsin solution and 10 ml of 0.001N HCl. Store on ice or at 4° C.
Procedure: Use the above solutions in the general protocol
(2) See note 1 of the cathepsin G assay.
(3) 0.1M Tris-HCl, pH 7.8, 20 mM CaCl2, 0.05% triton X-100 can be substituted for the triethanolamine buffer.

[5] = target: T1, bovine trypsin; settings: stated for comparison, no test described; cited from earlier work
[6] = target: T3, Human Sputum Cathepsin G; settings: stated for comparison, no test described; cited from earlier work
[7] = target: T4, bovine chymotrypsin; settings: stated for comparison, no test described; cited from earlier work

Substance	Inhibitory Activity Trypsin [1]	Inhibitory Activity Elastase [2]	inhibition of human elastase (in words) [2]	Inhibitory Activity Cathepsin G [3]	Inhibitory Activity Chymotrypsin [4]	inhibition of trypsin (in words) [5]	inhibition of cathepsin G (in words) [6]	inhibition of chymotrypsin (in words) [7]
RVCPVALMKCKKDSDCLAECVCLEHGYCG (RVCPVALMKCKKDSDCLAECVCLEHGYCG) [Peptide 48]	- (Represents less than 10% inhibition)	+ (Represents between 10% and 50% inhibition)	continue to be inhibitors of human elastase	- (Represents less than 10% inhibition)	- (Represents less than 10% inhibition)			
RVCPVILLKCKKDSDCLAECVCLEHGYCG (RVCPVILLKCKKDSDCLAECVCLEHGYCG) [Peptide 45]	- (Represents less than 10% inhibition)	++ (Represents greater than 50% inhibition)	continue to be inhibitors of human elastase	- (Represents less than 10% inhibition)	- (Represents less than 10% inhibition)			
R V C P V I L Nle KCKKDSDCLAECVCLEHGYCG [Peptide 43]	- (Represents less than 10% inhibition)	++ (Represents greater than 50% inhibition)		- (Represents less than 10% inhibition)	- (Represents less than 10% inhibition)			
RVCPVSLMKCKKDSDCLAECVCLEHGYCG (RVCPVSLMKCKKDSDCLAECVCLEHGYCG) [Peptide 44]	- (Represents less than 10% inhibition)	++ (Represents greater than 50% inhibition)		- (Represents less than 10% inhibition)	- (Represents less than 10% inhibition)			
RVPCVALMKCKKDSDCLAECVCLEHGYCG (RVPCVALMKCKKDSDCLAECVCLEHGYCG) [Peptide 49]	- (Represents less than 10% inhibition)	+ (Represents between 10% and 50% inhibition)	continue to be inhibitors of human elastase; also recorded: only marginal activity	- (Represents less than 10% inhibition)	- (Represents less than 10% inhibition)			
RVPCVILMKLKKDSDCLAECVCLEHGYCG (RVPCVILMKLKKDSDCLAECVCLEHGYCG) [Peptide 50]	- (Represents less than 10% inhibition)	- (Represents less than 10% inhibition)	only marginal activity	- (Represents less than 10% inhibition)	- (Represents less than 10% inhibition)			
α-1-Proteinase inhibitor						inhibits all of these enzymes	inhibits all of these enzymes	inhibits all of these enzymes
